Measured values taken from patent US20250051413A1.

Target: human IL-12 receptor (b1 and b2 chain) (human) (UniProt P42701)
Test: cell-based or functional assay

Sequence of Human recombinant IL-12 (P29460 23-328 limits assumed): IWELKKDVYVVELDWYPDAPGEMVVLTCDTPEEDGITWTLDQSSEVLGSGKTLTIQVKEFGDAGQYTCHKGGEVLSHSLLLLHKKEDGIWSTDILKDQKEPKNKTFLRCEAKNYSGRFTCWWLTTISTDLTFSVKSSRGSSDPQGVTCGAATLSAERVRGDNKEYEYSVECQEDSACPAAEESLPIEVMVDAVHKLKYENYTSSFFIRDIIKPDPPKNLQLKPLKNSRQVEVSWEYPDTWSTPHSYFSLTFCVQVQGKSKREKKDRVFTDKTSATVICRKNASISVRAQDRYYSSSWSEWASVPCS
Sequence of Human recombinant IL-12 (P29459 23-219 limits assumed): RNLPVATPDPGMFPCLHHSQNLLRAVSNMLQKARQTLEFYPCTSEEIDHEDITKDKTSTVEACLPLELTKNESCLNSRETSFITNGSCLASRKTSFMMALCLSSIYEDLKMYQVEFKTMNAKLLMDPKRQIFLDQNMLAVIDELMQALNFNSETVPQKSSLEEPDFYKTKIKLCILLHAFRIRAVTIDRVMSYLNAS
Sequence of human IL-12 receptor (b1 and b2 chain) (human) (Q99665 24-862, chain 2 of 2, other chains not shown): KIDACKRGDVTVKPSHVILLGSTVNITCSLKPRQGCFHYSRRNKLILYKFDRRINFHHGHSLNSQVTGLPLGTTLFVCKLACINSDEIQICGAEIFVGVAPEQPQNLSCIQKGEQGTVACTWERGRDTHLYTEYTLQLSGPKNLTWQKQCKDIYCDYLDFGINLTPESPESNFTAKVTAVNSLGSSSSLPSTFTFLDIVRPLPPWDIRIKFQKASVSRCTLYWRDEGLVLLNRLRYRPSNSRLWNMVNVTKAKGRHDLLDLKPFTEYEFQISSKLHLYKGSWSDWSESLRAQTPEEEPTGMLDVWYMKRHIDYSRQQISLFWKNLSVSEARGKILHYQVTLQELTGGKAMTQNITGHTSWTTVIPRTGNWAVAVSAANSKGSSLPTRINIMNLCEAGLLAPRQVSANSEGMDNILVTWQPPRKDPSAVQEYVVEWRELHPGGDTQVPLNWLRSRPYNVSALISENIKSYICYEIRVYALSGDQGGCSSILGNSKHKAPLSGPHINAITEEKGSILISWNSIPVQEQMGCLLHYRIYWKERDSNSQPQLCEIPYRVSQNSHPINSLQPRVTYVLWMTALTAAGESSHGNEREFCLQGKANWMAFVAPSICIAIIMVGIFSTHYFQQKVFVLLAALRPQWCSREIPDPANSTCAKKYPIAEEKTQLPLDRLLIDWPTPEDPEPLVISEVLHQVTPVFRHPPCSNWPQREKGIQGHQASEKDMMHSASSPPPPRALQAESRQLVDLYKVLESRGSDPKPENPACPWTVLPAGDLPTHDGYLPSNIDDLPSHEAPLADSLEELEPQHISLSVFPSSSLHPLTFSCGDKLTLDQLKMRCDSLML

Q: For “Human recombinant IL-12 (from UniProt P29460 23-328; P29459 23-219) (ligand)”, which E-max (Maximal response), p-STAT4 positive cells, CD8+ T cells and NK cells is on record?
A: 60 to 80%

Q: What about the EC50 of p-STAT4 induction in human PBMC, CD4+ T cells of the same substance?
A: 0.072 nM

Q: And the EC50 of p-STAT4 induction in human PBMC, CD8+ T cells?
A: 0.045 nM

Q: And the EC50 of p-STAT4 induction in human PBMC, NK cells?
A: 0.166 nM
